Consider six molecules from publication PMC10249358, “Elucidation of Short Linear Motif-Based Interactions of the FERM Domains of Ezrin, Radixin, Moesin, and Merlin” (Biochemistry, 2023).

One may read the Kd as the equilibrium constant for the complex coming apart.

Chain of moesin FERM domain, P26038 (P26038 2-295): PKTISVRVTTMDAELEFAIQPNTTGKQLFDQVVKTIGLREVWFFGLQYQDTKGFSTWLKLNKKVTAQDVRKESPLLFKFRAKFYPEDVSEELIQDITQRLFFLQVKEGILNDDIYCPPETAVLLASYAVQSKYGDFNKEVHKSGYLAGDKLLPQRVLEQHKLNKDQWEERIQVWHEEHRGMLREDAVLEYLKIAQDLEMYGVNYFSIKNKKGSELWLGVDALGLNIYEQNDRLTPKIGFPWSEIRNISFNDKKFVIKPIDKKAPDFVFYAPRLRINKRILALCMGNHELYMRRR

This assay has as its target moesin FERM domain, P26038. The assay is described as follows: FP. Conditions: modification not given.
Take LEFADFYAFRSSYPDH: the Kd turned out to be 50 µM. The value for TNGAYSVNTFKEHHST was 0.11 µM.

Molecule LEFADAYDFRSSYPDH came in with an equilibrium dissociation constant (Kd) of 85 µM.

LEAADFYDFRSSYPDH yielded a Kd of 2.3 µM. In the case of TNGYYSVNTFKEHHST it was 0.1 µM; in that of LEFADFYDFRSSAPDH, 2.8 µM.
